Source: patent publication US20110172153A1 (GENERAL HOSPITAL, published 2011)
One block for each binder: values may come before it. Square brackets hold non-standard residues; d marks the D form. Ends that are not written are not given here. hArg = N=C(N)NCCCC[C@H](N)C(=O)O; Nle = CCCC[C@H](N)C(=O)O; Aib = CC(C)(N)C(=O)O

Assays:
[1] = biological target: T1, human parathyroid hormone receptor (PTHR) (human, UniProt Q03431 27-593); test: ratio of R0 IC50 to RG IC50, hPTHR
T1 construct: Assayed in membranes of HKRK-B7 cells or of transiently transfected COS-7 cells, or on intact HKRK-B7/HKRK-B64/COS-7 cells; RG = co-transfected with negative-dominant Galpha-s; R0 = receptor alone plus GTPgammaS; also called hPTHR; human PTH receptor
T1 sequence: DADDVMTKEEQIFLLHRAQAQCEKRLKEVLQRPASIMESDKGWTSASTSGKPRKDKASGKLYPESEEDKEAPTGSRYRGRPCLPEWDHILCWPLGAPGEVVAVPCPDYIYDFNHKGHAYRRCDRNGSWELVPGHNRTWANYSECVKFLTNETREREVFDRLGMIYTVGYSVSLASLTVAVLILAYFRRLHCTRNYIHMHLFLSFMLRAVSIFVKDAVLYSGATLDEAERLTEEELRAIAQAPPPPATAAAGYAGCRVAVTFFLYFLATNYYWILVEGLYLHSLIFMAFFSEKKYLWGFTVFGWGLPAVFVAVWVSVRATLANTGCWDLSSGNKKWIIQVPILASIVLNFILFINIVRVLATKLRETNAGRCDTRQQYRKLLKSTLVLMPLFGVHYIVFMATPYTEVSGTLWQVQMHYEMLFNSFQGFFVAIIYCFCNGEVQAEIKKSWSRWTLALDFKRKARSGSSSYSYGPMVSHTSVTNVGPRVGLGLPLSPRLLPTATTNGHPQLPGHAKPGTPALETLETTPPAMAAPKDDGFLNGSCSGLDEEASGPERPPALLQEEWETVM

[2] = biological target: T1, human parathyroid hormone receptor …; test: competition vs 125I-PTH(1-34) + GTPgammaS, COS-7 membranes hPTHR (R0)
Protocol: (§1) Radioligand dissociation. These studies were performed as bulk reactions in 15 mL round-bottom polystyrene snap-cap tubes (Falcon) (total reaction volume=5.0 ml). Membranes and radioligand were pre-incubated for 90 minutes to allow complex formation; the dissociation phase was then initiated by the addition of an excess of the unlabeled analog of the radioligand (5×10⁻⁷ M final concentration), with or without GTPγS (5×10⁻⁵ M). Immediately prior to this addition (t=0), and at successive time-points thereafter, 0.2 ml aliquots (30,000 cpm) were withdrawn and immediately processed by vacuum filtration, as described above. Non-specific binding was determined in parallel reaction tubes containing the unlabeled analog of the radioligand (5×10⁻⁷ M) in both the pre-incubation and dissociation phases. The specifically bound radioactivity at each time point was calculated as a percent of the radioactivity specifically bound at t=0. Equilibrium competition binding and GTPγS inhibition. […] Membranes, tracer radioligand, and various concentrations of unlabeled ligands and/or GTPγS were incubated in the wells for 90 minutes, following which, the reaction plates were processed by rapid vacuum filtration to separate bound from free radioligand, as described above. […] For both radioligands, the non-specific binding was determined in reactions containing a saturating concentration of the unlabeled analog of the radioligand. The specifically bound radioactivity was calculated as a percent of the radioactivity specifically bound in the absence of a competing ligand or GTPγS.

[3] = biological target: T1, human parathyroid hormone receptor …; test: competition vs 125I-[Aib1,3,M]PTH(1-15), COS-7 membranes hPTHR + GsND (RG)
Protocol: as §1

[4] = biological target: T1, human parathyroid hormone receptor …; test: cell-based or functional assay
[5] = biological target: T1, human parathyroid hormone receptor …; test: ratio of R0 IC50 to RG IC50, human PTH1 receptor
[6] = biological target: T1, human parathyroid hormone receptor …; test: competition radioligand binding, human PTH1 receptor R0
Protocol: (§2) Binding Studies. Binding studies were performed using cell membranes as described (Dean et al., Mol Endocrinol 20(4):931-43 (2006)). […] Reactions contained a total membrane protein concentration of 20 to 100 μg/mL, and a total radioactivity concentration of approximately 150,000 cpm/ml. Unlabeled peptide ligands and/or GTPγS (Sigma-Aldrich Inc. St. Louis, Mo.) were added to the reactions as indicated. At the end of the reaction, bound and free radioligand were separated by vacuum filtration using a 96-well vacuum filter plate and vacuum filter apparatus (Multi-Screen system with Durapore HV, […] filters; Millipore Corp., Milford, Mass.); the air-dried filters were then detached from the plate and counted for gamma radioactivity using a gamma counter.
(§3) To assess the capacities of various unlabeled peptide ligands to bind to the G protein-uncoupled and G protein-coupled PTHR conformations (R⁰ and RG, respectively), membranes were prepared from transiently transfected COS-7 cells and the following assay conditions.

[7] = biological target: T1, human parathyroid hormone receptor …; test: competition radioligand binding, human PTH1 receptor RG
Protocol: as §2, §3

[8] = biological target: T1, human parathyroid hormone receptor …; test: cell-based or functional assay; remark: listed apart in the source
[9] = biological target: T1, human parathyroid hormone receptor …; test: cell-based or functional assay; remark: listed apart in the source
[10] = biological target: T2, rat parathyroid hormone receptor (PTHR) (rat, UniProt P25961 27-591); test: cell-based or functional assay
T2 sequence: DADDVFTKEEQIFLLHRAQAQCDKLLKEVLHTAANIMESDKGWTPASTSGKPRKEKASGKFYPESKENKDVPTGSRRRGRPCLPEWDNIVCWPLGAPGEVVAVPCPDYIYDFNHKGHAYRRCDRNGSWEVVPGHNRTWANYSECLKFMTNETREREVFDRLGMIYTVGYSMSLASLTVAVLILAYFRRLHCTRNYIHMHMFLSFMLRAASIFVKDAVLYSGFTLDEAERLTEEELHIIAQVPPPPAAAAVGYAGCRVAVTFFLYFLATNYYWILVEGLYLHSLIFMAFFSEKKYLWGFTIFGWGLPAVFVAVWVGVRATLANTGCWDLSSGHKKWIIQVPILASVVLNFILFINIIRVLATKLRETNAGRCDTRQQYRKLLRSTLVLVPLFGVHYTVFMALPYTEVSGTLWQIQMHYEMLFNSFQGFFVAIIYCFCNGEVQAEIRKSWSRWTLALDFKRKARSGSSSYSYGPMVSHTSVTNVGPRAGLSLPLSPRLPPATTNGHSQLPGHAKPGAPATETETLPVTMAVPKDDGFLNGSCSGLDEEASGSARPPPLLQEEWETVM

[11] = biological target: T1, human parathyroid hormone receptor …; test: ratio of R0 IC50 to RG IC50, hPTHR; remark: listed apart in the source
[12] = biological target: T1, human parathyroid hormone receptor …; test: competition radioligand binding, human PIR R0
Protocol: as §2, §3

[13] = biological target: T1, human parathyroid hormone receptor …; test: competition radioligand binding, human PIR RG
Protocol: as §2, §3

[14] = biological target: T1, human parathyroid hormone receptor …; test: competition radioligand binding, hPTHR R0 conformation
Protocol: as §2, §3

[15] = biological target: T1, human parathyroid hormone receptor …; test: competition radioligand binding, hPTHR RG conformation
Protocol: as §2, §3

[16] = biological target: T1, human parathyroid hormone receptor …; test: screen, binding to human PIR R0 relative to parent PTHrP(1-28)NH; footnote not given
[17] = biological target: T1, human parathyroid hormone receptor …; test: screen, binding to human PIR RG relative to parent PTHrP(1-28)NH; footnote not given

B1: [Aib^1,3,Nle^8,Gln^10,homoarginine^11,Ala^12,Trp^14,Tyr^15]rPTH(1-15)NH2 (peptide)
peptide: [Aib]V[Aib]EIQL[Nle]HQ[hArg]AKWY-NH2
modifications: N-terminus assumed
SMILES: CCCC[C@H](NC(=O)[C@H](CC(C)C)NC(=O)[C@H](CCC(N)=O)NC(=O)[C@@H](NC(=O)[C@H](CCC(=O)O)NC(=O)C(C)(C)NC(=O)[C@@H](NC(=O)C(C)(C)N)C(C)C)[C@@H](C)CC)C(=O)N[C@@H](Cc1c[nH]cn1)C(=O)N[C@@H](CCC(N)=O)C(=O)N[C@@H](CCCCNC(=N)N)C(=O)N[C@@H](C)C(=O)N[C@@H](CCCCN)C(=O)N[C@@H](Cc1c[nH]c2ccccc12)C(=O)N[C@@H](Cc1ccc(O)cc1)C(N)=O
notes: also called [Aib^1,3,M]rPTH(1-15)NH2; [Aib^1,3,M]PTH(1-15)
R0:RG [1]: 1400
IC50 [2]: 1030 nM
IC50 [3]: 0.74 nM

B2: [A1,3,23]-PTH(1-34)OH (peptide)
peptide: AVAEIQLMHNLGKHLNSMERVEALRKKLQDVHNF-OH
notes: also called [A^1,A^3,A^23]-PTH(1-34)OH; [A1,3,23]-hPTH(1-34)
cAMP in HKRK-B7 cells, EC50 [4]: 1.93 nM
cAMP in HKRK-B7 cells, Max [4]: 66.6 pm/well
R0/RG ratio [5]: 4290
IC50 [6]: 1840 nM
IC50 [7]: 0.43 nM

Binder: AVAEIQLMHQRAKWLNSMRAVEWLRKKLQDVHNF-OH (Mc = A1,3,12,Q10,R11,W14,R19) [A20,Mc-PTH(1-34)OH]
R0/RG ratio [5]: 80
IC50 [6]: 31.9 nM
IC50 [7]: 0.4 nM

Binder: AVAEIQLMHQRAKWLNSMRRVEFLRKKLQDVHNF-OH (Mc = A1,3,12,Q10,R11,W14,R19) [F23,Mc-PTH(1-34)OH]
R0/RG ratio [5]: 5
IC50 [6]: 1.2 nM
IC50 [7]: 0.23 nM

B3: [His^5,Nle^8,21,Tyr^34]rPTH(1-34)NH2 (peptide)
peptide: AVSEHQL[Nle]HNLGKHLASVER[Nle]QWLRKKLQDVHNY-NH2
modifications: N-terminus assumed
SMILES: CCCC[C@H](NC(=O)[C@H](CC(C)C)NC(=O)[C@H](CCC(N)=O)NC(=O)[C@H](Cc1c[nH]cn1)NC(=O)[C@H](CCC(=O)O)NC(=O)[C@H](CO)NC(=O)[C@@H](NC(=O)[C@H](C)N)C(C)C)C(=O)N[C@@H](Cc1c[nH]cn1)C(=O)N[C@@H](CC(N)=O)C(=O)N[C@@H](CC(C)C)C(=O)NCC(=O)N[C@@H](CCCCN)C(=O)N[C@@H](Cc1c[nH]cn1)C(=O)N[C@@H](CC(C)C)C(=O)N[C@@H](C)C(=O)N[C@@H](CO)C(=O)N[C@H](C(=O)N[C@@H](CCC(=O)O)C(=O)N[C@@H](CCCNC(=N)N)C(=O)N[C@@H](CCCC)C(=O)N[C@@H](CCC(N)=O)C(=O)N[C@@H](Cc1c[nH]c2ccccc12)C(=O)N[C@@H](CC(C)C)C(=O)N[C@@H](CCCNC(=N)N)C(=O)N[C@@H](CCCCN)C(=O)N[C@@H](CCCCN)C(=O)N[C@@H](CC(C)C)C(=O)N[C@@H](CCC(N)=O)C(=O)N[C@@H](CC(=O)O)C(=O)N[C@H](C(=O)N[C@@H](Cc1c[nH]cn1)C(=O)N[C@@H](CC(N)=O)C(=O)N[C@@H](Cc1ccc(O)cc1)C(N)=O)C(C)C)C(C)C
notes: also called His^5-PTH(1-34); H^5-PTH(1-34)
IP in COS-7/hPTHR cells, EC50 [9]: 30 nM
IP in COS-7/hPTHR cells, Emax [9]: 2230 cpm/well
cAMP in HKRK-B64 cells, EC50 [9]: 2.7 nM
cAMP in HKRK-B64 cells, Emax [9]: 59 picomole/well
R0:RG [1]: 753
IC50 [2]: 71 nM
IC50 [3]: 0.094 nM

B4: rPTH(1-34)NH2 (peptide)
peptide: AVSEIQLMHNLGKHLASVERMQWLRKKLQDVHNF-NH2
notes: also called r(rat)PTH(1-34)NH2; rat-PTH(1-34)
cAMP in ROS17/2.8 cells, EC50 [10]: 0.021 nM
R0:RG [1]: 7
IC50 [2]: 2.3 nM
IC50 [3]: 0.34 nM

Binder: AVSEHQLLHDKGKSIQDARRRAFLHKLI-NH2 [A18,22,K26-PTHrP(1-28)NH]
R0/RG selectivity [11]: 18100
IC50 [12]: 1820 nM
IC50 [13]: 0.1 nM
IC50 [14]: 1820 nM
IC50 [15]: 0.1 nM
human PIR R0 (% parent) [16]: 178 % parent
human PIR RG (% parent) [17]: 193 % parent

Binder: AVSEHQLLHDKGKSIQDERRRAFLHKLI-NH2 [E18,A22,K26-PTHrP(1-28)NH]
R0/RG selectivity [11]: 38300
IC50 [12]: 9240 nM
IC50 [13]: 0.24 nM
IC50 [14]: 9240 nM
IC50 [15]: 0.24 nM
human PIR R0 (% parent) [16]: 68.8 % parent
human PIR RG (% parent) [17]: 145 % parent

Other lines, results leading:

delayed cAMP response 60 minutes after wash-out, % of maximum, HKRK-B64 cells [8]: 34%
R0:RG [1]: 160
IC50 [2]: 122 nM
IC50 [3]: 0.76 nM
Binder: SVSEHQLMHNLGKHLNSMERVEWLRKKLQDVHNF-NH2 [[His^5]hPTH(1-34)NH2]

R0:RG [1]: 138
IC50 [2]: 26 nM
IC50 [3]: 0.19 nM
Binder: AVSEHQLMHNLGKHLASVERMQWLRKKLQDVHNF-NH2 [[His^5]rPTH(1-34)NH2]

delayed cAMP response 60 minutes after wash-out, % of maximum, HKRK-B64 cells [8]: 47%
t1/2 of decay of the cAMP signaling response, HKRK-B7 cells [8]: ~2 h
IP in COS-7/hPTHR cells, EC50 [9]: 18 nM
IP in COS-7/hPTHR cells, Emax [9]: 2410 cpm/well
cAMP in HKRK-B64 cells, EC50 [9]: 5.1 nM
cAMP in HKRK-B64 cells, Emax [9]: 55 picomole/well
R0:RG [1]: 5
B5: [Nle^8,21,Tyr^34]rPTH(1-34)NH2 (peptide)
peptide: AVSEIQLXHNLGKHLASVERXQWLRKKLQDVHNY
modifications: Nle at 8 and 21; C-terminal amide
notes: also called [Nle^8,21,Tyr^34]rat(r)PTH(1-34)NH2; control PTH(1-34) analog
